Laboratory results taken from patent US11111484B2, “Streptococcus bacteriophage lysins for detection and treatment of gram positive bacteria” (priority 2011, dated 2021).
Several values for one entry are separate records, joined by “and”; a condition that tells them apart may be missing. Equal entries are not always repeated. Entries after “also recorded” stand apart in the source; their conditions may differ.

Tests used:
S. suis strain 7711 = assay: ΔPlySs1 growth inhibition in BHI broth; assay type: cell-based, Streptococcus suis; conditions: overnight, 96-well plate
Procedure: The optical density of each sample was measured continuously overnight in 96-well plate format. Overall, bacterial growth was delayed in a dose-dependent manner. However, for enzyme-concentrations that were sufficient to induce lysis in buffered solutions (130 and 50 μg/ml), the effect was quite minimal here. […] For all of the treated samples, one will note that the final optical densities are actually higher than that of the untreated sample. This is an artifact of the accumulation of aggregated bacterial debris that occurred in the presence of lytic enzyme.
Truncated PlySs1(ΔPlySs1) lysin activity was determined against different cell types. Given the above experiments, the following optimal buffering conditions were employed for all further in vitro experiments with ΔPlySs1: 20 mM phosphate buffer, pH=7.8, 2 mM EDTA. A range of lysin concentrations, from 6.5-130 μg/ml, were introduced to live S. suis cells in this buffer. Three strains were considered particularly relevant: 7711, the serotype 7 strain that encodes PlySs1; S735, the serotype 2 reference strain; and 7997, a highly virulent serotype 9 strain. In terms of bacterial viability, only the highest PlySs1-concentration (130 μg/ml) led to a >90% decrease in CFUs for 7711, S735, and 7997 after 1 hr treatment (TABLE 2). The lysin was also tested against actively-dividing cells in broth culture (strain 7711) (FIG. 20).

S. salivarius 9222 = assay: ΔPlySs1 OD600 lysis, 1 hr, optimal buffering conditions; assay type: cell-based
S. rattus BHT = assay: as above; assay type: cell-based, Streptococcus rattus
S. agalactiae 090R = assay: as above; assay type: cell-based, Streptococcus agalactiae
L. monocytogenes = assay: CFU studies, bactericidal effect; assay type: cell-based, Listeria monocytogenes; conditions: 128 μg/ml PlySs2, 60 mins
Procedure: Log-phase bacteria were resuspended in buffer A to an OD600 of 0.1 (=0.5 McFarland≈10^8 CFU/ml). PlySs2 was added at 128 μg/ml to polypropylene microtiter plates (Costar) in triplicate for each test organism. Plates were sealed and incubated at 37° C. with shaking every 5 minutes for 1 hour. After 1 hour of incubation, cells were serially diluted in 10-fold increments and plated on BHI. Triplicate controls for each strain were performed with buffer B replacing PlySs2.

[1] = test system: MRSA strain MW2 and S. pyogenes strain MGAS5005; assay: murine septicemia model, mixed MRSA and S. pyogenes infection; assay type: in vivo, FVB/NJ mice; conditions: PlySs2 2 mg, ClyS 1 mg + PlyC 1 mg
Procedure: The Rockefeller University's Institutional Animal Care and Use Committee approved all in vivo protocols. A systemic infection model described in Daniel, A. et al., was used to test for the in vivo efficacy of PlySs2 against multiple gram-positive bacteria. Briefly, 4-5 week old female FVB/NJ mice (weight range 15 to 20 g) were obtained from The Jackson Laboratory (Bar Harbor, Me.). After a period of acclimation, mice were injected intraperitoneally (IP) with 0.5 ml of mid log-phase (OD600 0.5) bacteria diluted with 5% hog gastric mucin (Sigma) in saline. Bacterial suspensions contained ˜5×10^5 CFU/ml of MW2, a PVL toxin-encoding MRSA strain, ˜1×10^7 of MGAS5005, an M1 serotype of Streptococcus pyogenes that is virulent in humans and mice (Musser), or a combination of both bacteria simultaneously at the above concentrations for the mix infection experiments. Actual bacterial inoculation titers were calculated by serial dilution and plating to Columbia blood agar plates for each experiment. […] The survival rate for each experimental group was monitored every 12 hours for the first 24 hours then every 24 hours up to 10 days post-infection. The data were statistically analyzed by Kaplan Meier Survival curves and a Logrank test performed for 95% confidence intervals using the Prism computer program (GraphPad Software; La Jolla, Calif.). […]

S. pyogenes strains = assay: PlySs2 lytic activity against species and strains (FIG. 25); assay type: cell-based, Streptococcus pyogenes; conditions: S. pyogenes serotypes M1, M3, M4, M6, M18, M49, variant without M protein
Procedure: FIG. 25 provides PlySs2 activity against different species and strains. Log-phase cultures were exposed to 32 μg/ml PlySs2 for 60 minutes in phosphate buffer. The final OD600 of the treated samples were divided by the final OD600 of the untreated samples to generate the normalized values above. Multiple Staphylococci (including, but not limited to: MRSA, MSSA, and VISA), Streptococci, Listeria, Enterococci, and Bacilli were tested for susceptibility to PlySs2 activity. Escherichia and Pseudomonas were tested as Gram-negative controls.

[2] = test system: vancomycin intermediate sensitivity Staphylococcus aureus (VISA) and vancomycin resistant Staphylococcus aureus (VRSA) strains; assay: in vitro tests / standard MIC analysis of staphylococci (FIG. 18); assay type: cell-based; conditions: comparable in vitro tests
Procedure: FIG. 18. PlySS2 was tested by standard MIC analysis for its ability to kill strains of staphylococci. Included in the testing were resistant staphylococci such as Vancomycin resistant (VRSA), Vancomycin intermediate (VISA) and methicillin resistant (MRSA) staphylococci. The three VRSA strains tested represent half of all known isolates.

B1: ΔPlySs1: truncated PlySs1 lysin, SEQ ID NO:2, N-terminal 254 amino acids: only N-terminal enzymatic and central binding domains (protein, listed as Streptococcus suis)
chain: MTINLETSIRWMSDRVGKVSYSMDYRNGPNSYDCSSAVYYALMAGGAISAGWAVNTEYMHDWLIRNGYVLVAENKPFNAQRHDVCILGKRGYSSGAGGHVVIFVDNVNVIHCNYARNGISIDNYNQVHRGMYYYLYRPANQPSISNKSLDQLVKETLAGVHGNGDTRKASLGSQYEAVMAVINGKASASEKSDEELAREVLAGKHGAGEDRKRSLGPRYEPVQAKVNELLKAKEKPSETAKNEPQTVQFKEDGDL
B1 was tested, and the “MIC / growth inhibition” value (S. suis strain 7711) was “could not inhibit S. suis growth outright; also recorded: a MIC could not be assigned”, the “lysis value after 1 hr (treated/untreated OD600 ratio)” value (S. salivarius 9222; 6.5 μg/ml) was 0.80 and the “lysis value after 1 hr (treated/untreated OD600 ratio)” value (S. salivarius 9222; 13 μg/ml) was 0.76. The “lysis value after 1 hr (treated/untreated OD600 ratio)” value (S. salivarius 9222; 30 μg/ml) was 0.56, the “lysis value after 1 hr (treated/untreated OD600 ratio)” value (S. salivarius 9222; 65 μg/ml) was 0.53 and the “lysis value after 1 hr (treated/untreated OD600 ratio)” value (S. salivarius 9222; 130 μg/ml) was 0.37. The “lysis value after 1 hr (treated/untreated OD600 ratio)” value (S. rattus BHT; 6.5 μg/ml) was 0.82, the “lysis value after 1 hr (treated/untreated OD600 ratio)” value (S. rattus BHT; 13 μg/ml) was 0.84 and the “lysis value after 1 hr (treated/untreated OD600 ratio)” value (S. rattus BHT; 30 μg/ml) was 0.82. The “lysis value after 1 hr (treated/untreated OD600 ratio)” value (S. rattus BHT; 65 μg/ml) was 0.83, the “lysis value after 1 hr (treated/untreated OD600 ratio)” value (S. rattus BHT; 130 μg/ml) was 0.79 and the “lysis value after 1 hr (treated/untreated OD600 ratio)” value (S. agalactiae 090R; 6.5 μg/ml) was 0.97. For the same molecule, the “lysis value after 1 hr (treated/untreated OD600 ratio)” value (S. agalactiae 090R; 13 μg/ml) was 0.99, the “lysis value after 1 hr (treated/untreated OD600 ratio)” value (S. agalactiae 090R; 30 μg/ml) was 0.97 and the “lysis value after 1 hr (treated/untreated OD600 ratio)” value (S. agalactiae 090R; 65 μg/ml) was 0.98. For the same molecule, the “lysis value after 1 hr (treated/untreated OD600 ratio)” value (S. agalactiae 090R; 130 μg/ml) was 0.93.

B2: PlySs2: Streptococcus suis prophage lysin, SEQ ID NO:3; N-terminal CHAP domain and C-terminal SH3-type 5 domain (protein, listed as Streptococcus suis)
chain: MTTVNEALNNVRAQVGSGVSVGNGECYALASWYERMISPDATVGLGAGVGWVSGAIGDTISAKNIGSSYNWQANGWTVSTSGPFKAGQIVTLGATPGNPYGHVVIVEAVDGDRLTILEQNYGGKRYPVRNYYSAASYRQQVVHYITPPGTVAQSAPNLAGSRSYRETGTMTVTVDALNVRRAPNTSGEIVAVYKRGESFDYDTVIIDVNGYVWVSYIGGSGKRNYVATGATKDGKRFGNAWGTFK
For B2, the “reduction in CFU counts” value (L. monocytogenes) was “dramatically reduced”, the “survival of mixed infection” value [1] was 92% and the “survival of mixed infection (mice surviving/total)” value [1] was 22 of 24 and 22/24. For the same molecule, the lytic activity (S. pyogenes strains) was “had activity against all strains of S. pyogenes” and the “effectiveness against VISA and VRSA” value [2] was “similarly effective”.
